The nature of the data set: label from the status in PepcDB records.
As for “MTSTFLLEIGTEELPADFARQALDQLQDRVGRDLLDSRLDHKSVQVLGTPRRLVVRVHGLADRQPDLEEDQKGPPIAQAFKDGVPGPAAIGFSKRCGVDPSQLEVRNTPKGECVFASVRTEGQNSVDLLQELIPAWINGLQGRRFMRWGTGSQRFSRPIRWLLALKGVDLIPVEIPGADPPVRSDRFSRGHRLHGDQPLPIDTAEDYDDTLAAAGVIVDRQQRAALIRSQLDASADQLNGLPDCPESLFEELVDLVESPRLLQGSIAERFLSLPPEVIITVMQAHQRYVPLKVPEVTPDPLQLEATVVLQRDFLLVGNGLEAADALITRGNERVLAARLADAEFFLSVDRRQPSSARREALDRVTFAEGLGSLLDRCQRIERTARQLVDQLNLDAHQGEAAIRAAHFCKHDLVSQMVGEFPELQGLMGGKYLLEEGEPTEVALAVVEHYLPRGAGDQLPSSDAGAVVALAERLELLLSIFAKGERPSGSSDPYALRRAGNGLLQIVWDRGWRLDLSRFLGSAVEDWAALFPEFAIDSSALHQDLCQLLRQRIVSQLEDEGFVPDLVQAVSAESVAT”, the protein production entry is listed as “failed”. Next, “MGLNNARGLSFGLDGALYVTEAGTGGNGACIPSVTGQGGSLCYGTSSTVLKIENGVTSPVLTGLPSIALADGTGAGGARDIQFDTTGKPYILMGYGANPTFRNNLGNIDLGKIIAPDFQTNSWTSIADLANYELVNNPDGGDINSNPLGFFIDGNNLIAVDAGANNLLSVQTNGTNLQTLSVFPQEILTNPVFPPSGTPSTEPGQVPTPTAPPPPQLPIQVVPSSVVRGPDGAYYVSQFTGFPFPEGGAKIYRVGTDGETTIYADGFTQLTDLEFDSAGNLYALQYANQSAWKGNFDGSLIKIAADGTRTTILSGNGLESPNALAIAPNGEIYITNRSDRPGLGQIIRVENSQAVPLEHHHHHH”: “failed”. Under “MGSVQLSGSGLVASLPPNHSFSHKTKLNKPNSYFFRSKHNAARTKTVRAISTAPASQPPAADEPDEPPAVDFAFVHSVLLPDGTPDVHWRRANGGQKLRDIMLDSNIELYGPYSKPLSNCAGVGTCATCMVEIVNGKELLNPRTDIEKEKLKRKPKNWRLACQTNVGNPDSTGLVVIQQLPEWKAHEWNIPKNIPNDDDLETST” stands “failed”; under “MERIIQQTDYDALSCKLAAISVGYLPSSGLQRLSVDLSKKYTEWHRSYLITLKKFSRRAFGKVDKAMRSSFPVMNYGTYLRTVGIDAAILEFLVANEKVQVVNLGCGSDLRMLPLLQMFPHLAYVDIDYNESVELKNSILRESEILRISLGLSKEDTAKSPFLIDQGRYKLAACDLNDITETTRLLDVCTKREIPTIVISECLLCYMHNNESQLLINTIMSKFSHGLWISYDPIGGSQPNDRFGAIMQSNLKESRNLEMPTLMTYNSKEKYASRWSAAPNVIVNDMWEIFNAQIPESERKRLRSLQFLDELEELKVMQTHYILMKAQW”, “not failed”; under “MKRVNQNLYQLLRRIYWRLPLPEETKELLVGFARRFLRGMKKALAEPVTTASSASVSREKILQEYANQILAIPRKSGNEYVEISSSSYQRKEGDAKILAYYLPQFHPTKENDMWWGKGVTEWNNVSRAMPQYVGHYQPRLPGELGYYDLRILDNMRRQVELAQMYGIYGFCFYYYWFDGKRLLDKPLDMFLEAKTIDFPFSLCWANESWTRRFDGSCGEILVKQSETVESYIAFINSVVPYMRDSRYIRMNGKPIFTIYRPSFIPECASTITAWREHCVKAGIGDIYIIGIKEHTWDVNLIELGFDAQSEFHPGTLFKHCVDISSQINYMQDFGGIVLDYRDIVEHKKYFLYNHPKLHRAAMPMWDNSARRDNKGMIFEGASPDLYERWLTDILLEAKNREDLEDHYIFINAWNEWGEGAYLEPDKKYGYAYLNATRQAIEGVRS”, “failed”. For the sequence “MNKGFILKALFLLCFLFSQTAQGQSFTPGEIWPDNHQVHINAHGGGILYENGTYYWFGEHKTEGEAGNLANVGVHCYSSDDLYHWKDCGIALSVIENDPGHPISKGCILERPKVIYNPLTKKYVMWFHLEPKGAGYSGALSGIALSDRVTGPYTFLKAVRPNAGSWPINVLPIHKTTRRPSAEEERQCTGGSLPAHPDSLNILGRDMEQGQMARDMNLFVDDDGKAYHIYSSEENSTLHIAELDPTYTGYTGKYIRVFINRFMEAPAMFKKDGNYYLIMSGCSGWNPNAARSAIASSIWGEWKELGNPCIGQDADLTFHSQSTYILPVQGKKNQFIYMGDRWTPQNAIDGRYIWLPIHFEGPKPIIEWKDSWTLD”, the protein production entry is “failed”. Under “MKKMKTLTLFLSLLFSFPFVLSAQMVGETLQKVSAALDNRQWDQAVTLFRQAVNTNVEKAEMFYWTGVDKSLEVSSRIGRELAAYYKKSRSYDKAYLFYKELLQKSPNDVNCLVSCAEMEVCRGRESEALETYRKVLSLDADNLAANIFIGNYLYLKAEREKKQLEADYKKISAPTRMQYARYRDGLSRVMSTGYGKAREYLQKVISQFPSTEAQKTLERIKLIEKEVNR” stands “failed”; under “MPPCYQHEEEKFFLNAKGQKEALPSIWDSPTKQLSVVVPSYNEEKRLPVMMDEALNYLEKRQKHDCTFTYEVIVVDDGSEDQTSKVALKYCQKYGSDKVRVITLVRNRGKGGAVRMGVFSSRGEKILMADADGATKFPDVEKLEKGLSDLQPWPEQMAIACGSRAHLEKESIAQRSYFRTFLMYGFHFLVWFLCVKGIRDTQCGFKLLTREAAARTFSSLHIERWAFDVELLYIAQCLQIPIAEVAVNWTEIEGSKLVPFWSWLQMGKDLLFIRLRYLTGAWRLKQTRKAS”, “failed”. For the sequence “MKRADIKRRPLADTTLTGLEPEAKEYRELDGNGLYFRVKPDGGKSWQLRYKRPAGNWAWMGLGGYPEVSGALAREKAAELRKTISSGIDPLEQKRSAKAAIDAAKTRTFRAAADAWLKAKEEKGLAPSTLNKIRTYLDKDILPALGDKPLDEITRTDCAELQASIEARDAHNVAEKCRTWINQIFGRAIGLGLTENDPGSRLRDIAAQAPKTQQHPHLLEPELGEFLTALKNTPSRLTARTAAWLCIWTASRPGMVRLAEWKEFDLDKATWTTPAAKMKMRRDFVCPLPHQAIAALKELHCLTGRSRWLFPGVGAKNPTISENTINKVFATIGYKGRLVGHGTRHTASTLLREHGWPKEHVEAQLAHKEEGISGVYNKAQYLEQRITMMQWYADHLDALEQGKVIQGQFGKAL”, the protein production entry is on record as “failed”. Next, “MPSEKQPQSKGNKMAILKLDEHLYISPQLTKADAEQIAQLGIKTIICNRPDREEESQPDFAQIKQWLEQAGVTGFHHQPVTARDIQKHDVETFRQLIGQAEYPVLAYCRTGTRCSLLWGFRRAAEGMPVDEIIRRAQAAGVNLENFRERLDNARV”: “not failed”; “MDTQNLPDQIIPIFMSFDKNYALGASVSLYSLLSHASRHTSMIDFSPLNQSNKLLGANIVYKIHCLVKGVTLEQQNKLLKTIAPFKKFASLEFIHINSLDHSIESYLNKSCSKRYGGLLVLCRLLLASLFPNYSKIISIDADTVFLGDVASAYFALDNDPTKSLGMVRDTFSHLSFEAFCDFCKRACKNFKIDFSRFSPDELKRIHQGFNMGFLVAHLDRWRQDGFEKTALEFLKTRGKDLFYPEQCLVNMVFWERILELPIYYNCYSDFFKEHYPKNIIMLHFIKYKPWRSVSSLNGRLICYEAEASFWLANLFHTPFKNDFFKERLEMAKDQQMQSFKTHIRSQTIRNYLGFRVKNILKKVFKLSLEHHHHHH”: “not failed”. On to “EDDKLKSVEALRQKGNELFVQKDYKEAIDAYRDALTRLDTLILREKPGEPEWVELDRKNIPLYANMSQCYLNIGDLHEAEETSSEVLKREETNEKALFRRAKARIAAWKLDEAEEDLKLLLRNHPAAASVVAREMKIVTERRAEKKADSRVTYSKMFQP”, for which the protein production result was “not failed”.
